Test [1] concerns the target T1, TAP-tagged Ndc1 (S. cerevisiae, UniProt P32500 1-655).
T1 sequence (looked up): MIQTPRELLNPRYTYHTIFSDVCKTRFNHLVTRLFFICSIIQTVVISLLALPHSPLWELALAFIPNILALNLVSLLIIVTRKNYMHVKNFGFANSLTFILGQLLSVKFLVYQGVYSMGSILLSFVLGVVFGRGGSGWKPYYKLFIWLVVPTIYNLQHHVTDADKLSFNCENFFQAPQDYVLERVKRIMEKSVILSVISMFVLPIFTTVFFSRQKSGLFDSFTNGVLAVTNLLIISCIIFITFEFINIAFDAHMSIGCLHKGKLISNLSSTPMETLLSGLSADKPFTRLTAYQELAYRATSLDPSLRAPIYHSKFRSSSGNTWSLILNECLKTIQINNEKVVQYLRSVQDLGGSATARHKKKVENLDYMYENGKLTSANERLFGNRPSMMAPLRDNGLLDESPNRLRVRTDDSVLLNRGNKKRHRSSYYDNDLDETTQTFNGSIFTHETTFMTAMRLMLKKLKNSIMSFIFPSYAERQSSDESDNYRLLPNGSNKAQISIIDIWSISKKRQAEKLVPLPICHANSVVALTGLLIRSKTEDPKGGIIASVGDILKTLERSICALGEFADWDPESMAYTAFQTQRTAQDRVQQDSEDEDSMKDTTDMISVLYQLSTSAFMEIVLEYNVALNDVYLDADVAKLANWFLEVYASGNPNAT
Description: pull-down.

Test [2] deals with TAP-Nup170 (S. cerevisiae, UniProt P38181 1-1502). Description: pull-down.
TAP-Nup170, sequence (P38181 whole entry): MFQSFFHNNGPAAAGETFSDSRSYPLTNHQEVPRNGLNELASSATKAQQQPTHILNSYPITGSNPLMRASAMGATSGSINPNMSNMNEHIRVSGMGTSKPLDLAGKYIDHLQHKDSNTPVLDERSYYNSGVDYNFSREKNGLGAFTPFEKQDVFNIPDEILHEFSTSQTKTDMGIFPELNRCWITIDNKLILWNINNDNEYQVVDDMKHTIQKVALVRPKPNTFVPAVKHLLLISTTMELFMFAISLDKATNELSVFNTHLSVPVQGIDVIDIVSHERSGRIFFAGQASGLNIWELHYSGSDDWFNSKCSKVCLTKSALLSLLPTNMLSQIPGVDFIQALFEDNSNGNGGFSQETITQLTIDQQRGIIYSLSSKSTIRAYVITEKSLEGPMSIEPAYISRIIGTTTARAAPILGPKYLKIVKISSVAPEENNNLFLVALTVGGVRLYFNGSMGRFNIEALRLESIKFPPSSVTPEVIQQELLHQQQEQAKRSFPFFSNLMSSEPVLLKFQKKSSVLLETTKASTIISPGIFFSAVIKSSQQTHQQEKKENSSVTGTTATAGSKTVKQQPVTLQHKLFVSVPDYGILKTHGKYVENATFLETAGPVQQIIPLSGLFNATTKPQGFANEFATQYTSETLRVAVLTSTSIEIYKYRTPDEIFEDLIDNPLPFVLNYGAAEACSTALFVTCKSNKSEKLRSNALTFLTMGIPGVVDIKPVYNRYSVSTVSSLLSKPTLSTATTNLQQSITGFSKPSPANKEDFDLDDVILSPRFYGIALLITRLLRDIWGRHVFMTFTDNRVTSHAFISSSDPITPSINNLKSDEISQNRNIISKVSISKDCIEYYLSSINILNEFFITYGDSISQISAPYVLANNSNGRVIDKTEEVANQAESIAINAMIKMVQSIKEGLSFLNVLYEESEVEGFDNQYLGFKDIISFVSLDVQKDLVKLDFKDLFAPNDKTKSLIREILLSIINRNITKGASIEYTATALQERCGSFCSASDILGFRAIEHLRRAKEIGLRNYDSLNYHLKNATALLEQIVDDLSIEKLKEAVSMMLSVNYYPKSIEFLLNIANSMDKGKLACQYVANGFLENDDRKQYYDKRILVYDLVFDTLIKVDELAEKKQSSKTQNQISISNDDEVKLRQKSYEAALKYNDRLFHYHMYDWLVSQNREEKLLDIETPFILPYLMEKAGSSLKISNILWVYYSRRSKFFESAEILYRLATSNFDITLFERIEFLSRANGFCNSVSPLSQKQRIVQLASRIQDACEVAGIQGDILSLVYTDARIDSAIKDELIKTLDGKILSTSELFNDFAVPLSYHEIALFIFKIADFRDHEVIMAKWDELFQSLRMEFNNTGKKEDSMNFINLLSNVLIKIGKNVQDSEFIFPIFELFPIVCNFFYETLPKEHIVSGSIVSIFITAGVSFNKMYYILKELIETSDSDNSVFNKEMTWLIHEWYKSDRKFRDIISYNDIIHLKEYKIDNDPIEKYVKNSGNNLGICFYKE

B1: GST-Nup53(376-475) (domain or fragment, S. cerevisiae, UniProt Q03790 376-475, looked up)
chain: KDLSNYRKTEGIFEKAKAKAVTSKVRNAEFKVSKNSTSFKNPRRLEIKDGRSLFLRNRGKIHSGVLSSIESDLKKREQASKSKKSWLNRLNNWLFGWNDL
Take B1: the binding result in test [1] is reported as “binds”.

B2: 6xHis-MBP-Nup53 (natural protein, S. cerevisiae, UniProt Q03790 1-475, looked up)
chain: MADLQKQENSSRFTNVSVIAPESQGQHEQQKQQEQLEQQKQPTGLLKGLNGFPSAPQPLFMEDPPSTVSGELNDNPAWFNNPRKRAIPNSIIKRSNGQSLSPVRSDSADVPAFSNSNGFNNVTFGSKKDPRILKNVSPNDNNSANNNAHSSDLGTVVFDSNEAPPKTSLADWQKEDGIFSSKTDNIEDPNLSSNITFDGKPTATPSPFRPLEKTSRILNFFDKNTKTTPNTASSEASAGSKEGASTNWDDHAIIIFGYPETIANSIILHFANFGEILEDFRVIKDFKKLNSKNMSKSPSLTAQKYPIYTGDGWVKLTYKSELSKSRALQENGIIMNGTLIGCVSYSPAALKQLASLKKSEEIINNKTSSQTSLSSKDLSNYRKTEGIFEKAKAKAVTSKVRNAEFKVSKNSTSFKNPRRLEIKDGRSLFLRNRGKIHSGVLSSIESDLKKREQASKSKKSWLNRLNNWLFGWNDL
For B2, in test [2], the binding result is “binds”.

B3: GST-Nup59 (natural protein, S. cerevisiae, UniProt Q05166 1-528, looked up)
chain: MFGIRSGNNNGGFTNLTSQAPQTTQMFQSQSQLQPQPQPQPQQQQQHLQFNGSSDASSLRFGNSLSNTVNANNYSSNIGNNSINNNNIKNGTNNISQHGQGNNPSWVNNPKKRFTPHTVIRRKTTKQNSSSDINQNDDSSSMNATMRNFSKQNQDSKHNERNKSAANNDINSLLSNFNDIPPSVTLQDWQREDEFGSIPSLTTQFVTDKYTAKKTNRSAYDSKNTPNVFDKDSYVRIANIEQNHLDNNYNTAETNNKVHETSSKSSSLSAIIVFGYPESISNELIEHFSHFGHIMEDFQVLRLGRGINPNTFRIFHNHDTGCDENDSTVNKSITLKGRNNESNNKKYPIFTGESWVKLTYNSPSSALRALQENGTIFRGSLIGCIPYSKNAVEQLAGCKIDNVDDIGEFNVSMYQNSSTSSTSNTPSPPNVIITDGTLLREDDNTPAGHAGNPTNISSPIVANSPNKRLDVIDGKLPFMQNAGPNSNIPNLLRNLESKMRQQEAKYRNNEPAGFTHKLSNWLFGWNDL
For B3, in test [1], the binding result is listed as “binds”.

B4: 6xHis-MBP-Nup59 (natural protein, S. cerevisiae, UniProt Q05166 1-528, looked up)
chain: B3 chain
For B4, the binding result in test [2] was “binds”.

Source of the values: PMC2700399 (The Journal of Cell Biology, 2009).
